± gives the standard deviation of the averaged measurements.
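Further: ATP exposure 15 min at 22 °C before imaging.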

The test system of this data set is ATP. In words: switch fluorescence ratio, 500 uM ATP over buffer (Cy3 cluster intensity, sum of 5 cycles each) (fold (ratio)); higher = stronger signal-on switching upon ATP binding; sequences stand for … in TCGTCGGCAGCGTCAGATGTGTATAAGAGACAGTTTTTTTTTTTTTTTTTTTTTTTTT…TC. The note with it: aptamer strand: ATP DNA aptamer (quencher-CACCTGGGGGAGTATTGCGGAGGAAGG + anchor), 100 nM annealed; ATP concentration: 500 uM. The method in brief: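 Imaging in selection buffer was followed by imaging after 15 min with 500 uM ATP at 22 °C, for Cy3-labelled switching-strand clusters annealed to 100 nM quencher-labelled ATP aptamer on a modified Illumina MiSeq flow-cell. Five of these buffer/ATP cycles ran, separated by NaOH stripping and re-annealing. The fluorescence ratio per cluster is summed target-cycle over summed buffer-cycle Cy3 intensity, averaged per switch-domain sequence; clusters outside 100-1000 RFU were removed.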
Regarding GGCCTCGTAC, the switch fluorescence ratio came out at 1.1 ± 0.02. Next, TTTTCTTTTC: 1.09 ± 0.084; GGTGAGAAGT: 1.01 ± 0.013.

As for GACATCGGCA, the switch fluorescence ratio amounted to 1.03 ± 0.016. The figure for ATCAGTGGTA is 0.987 ± 0.028; for GCGAGATGGG it is 0.9735 ± 0.0013. Next, AGGTTTATTT: 1.02 ± 0.018; CCGGGGGGCT: 1.09 ± 0.043. The figure for GCTAAGTTTA is 0.996 ± 0.025; for TGATGTTGTC it is 0.988 ± 0.033; for TCGAGATCCG it is 0.996 ± 0.018. With AATTTCGGAT, the switch fluorescence ratio turned out to be 0.9595 ± 0.0035. Regarding GCATATGGTT, the switch fluorescence ratio stood at 0.988 ± 0.016. The figure for GATTTATGAC is 1.02 ± 0.038; for AGGAAACCCG it is 0.994 ± 0.064; for TACCGGGCAC it is 1.11 ± 0.03. Next, TTTGTTTCAT: 1.04 ± 0.1; CATATATTT: 0.975 ± 0.015.

As for TGCTGCGACG, the switch fluorescence ratio is 1.003 ± 0.0022. The figure for TTTTTGTGTG is 0.993 ± 0.023; for TCTAGCCGGT it is 0.9878 ± 0.0085; for CATGTTGGAG it is 0.9924 ± 0.0053. Next, TTTCAGAACT: 1.0027 ± 0.00088; GACTTATTAT: 1.001 ± 0.0041.

On to AATTTGACAT, for which the switch fluorescence ratio amounted to 1.03 ± 0.02. The figure for TTTCTAAGGA is 0.978 ± 0.017. For AATAGTTTAT, the switch fluorescence ratio came out at 0.986 ± 0.022. The figure for TGGATTTCGC is 1 ± 0.027.

For TATTTATCGG, the switch fluorescence ratio is 0.991 ± 0.013. As for ACCATGCGTC, the switch fluorescence ratio is 0.99 ± 0.031. With TGGGGATAGG, the switch fluorescence ratio came out at 1.01 ± 0.022. The figure for TGCCCTTCAT is 1.04 ± 0.011; for TGGTAGCAGG it is 1.24 ± 0.35; for TTGCTTCTAG it is 0.979 ± 0.043. Next, TTTTAGGGCG: 0.976 ± 0.048. The figure for AGGTTGGGGC is 1.01 ± 0.052; for TCGTTATGTA it is 0.992 ± 0.018. As for AGGGGGGCGA, the switch fluorescence ratio is 1.01 ± 0.029.

Regarding AAGGGTCTGG, the switch fluorescence ratio was 0.986 ± 0.024.

CCCATGCTTA: the switch fluorescence ratio turned out to be 1.046 ± 0.003. Next, GGGTAAAGAT: 1.02 ± 0.021. Next, TAAAATGGGA: 0.981 ± 0.027; CAATTGTACT: 0.994 ± 0.013. The figure for ATATCAATC is 1.02 ± 0.034. On to TCTCTATAGG, for which the switch fluorescence ratio came out at 0.9834 ± 0.0036.

Consider GAAAAATTGG, for which the switch fluorescence ratio turned out to be 1.03 ± 0.03.

In the case of AGAAGTTGAG, the switch fluorescence ratio came to 0.984 ± 0.01. The figure for GTGTTATAGG is 1 ± 0.026.

For CCATGTTTGG, the switch fluorescence ratio amounted to 0.996 ± 0.028. The figure for ATGGGGTGGC is 0.9977 ± 0.0017. Take AGCACGTTTT: the switch fluorescence ratio came to 1.01 ± 0.025. Next, GGTTGGGCGG: 1.01 ± 0.026. The figure for GGAGTTAAGT is 0.987 ± 0.043; for CGTGGGAGGC it is 1.04 ± 0.077; for ATGCACGTGG it is 1.008 ± 0.003.

As for TTCTTCTGGC, the switch fluorescence ratio stood at 1.017 ± 0.0073.

As to GGTGGAACAG, the switch fluorescence ratio was determined as 1.02 ± 0.028. The figure for TTTTAAACCG is 1.05 ± 0.17; for ATTTATTATG it is 0.989 ± 0.038. Next, TAAGGGGAGT: 1.01 ± 0.038. Next, GGTTGGGGCT: 0.987 ± 0.039; TTAAAAAGGT: 1 ± 0.021. On to TGACCTGGCT, for which the switch fluorescence ratio was 1.04 ± 0.035. Next, TGCTAGTTCT: 0.99 ± 0.016; AGAGATGTGG: 0.958 ± 0.036. Next, TAGGGGTTTG: 0.979 ± 0.027; CTTCAGGGGA: 1.01 ± 0.061. In the case of GGTAGTGAGC, the switch fluorescence ratio came to 1.02 ± 0.02. Next, GCGTTGAGCT: 0.987 ± 0.023; GGGTTGCTTT: 1 ± 0.024.

In the case of CCTGTTGGTT, the switch fluorescence ratio was 0.955 ± 0.033.

On to TTTGTTTTGG, for which the switch fluorescence ratio came out at 1.03 ± 0.025. For TGCAAAGGGC, the switch fluorescence ratio is 1.01 ± 0.015. Next, TGCTAGGGAT: 1.01 ± 0.029; ACCGTTTCGT: 0.94 ± 0.029. Next, TAGGGGAATG: 1.02 ± 0.098; CCGGTTACGT: 1.17 ± 0.2. In the case of TGGCAGCAGG, the switch fluorescence ratio was determined as 1 ± 0.024. Next, ATGCTGTTGG: 1 ± 0.026. The figure for ATAGCCGGGT is 1.04 ± 0.088; for AGTAACGCTT it is 1.008 ± 0.01; for GGCCGGCAAA it is 1.01 ± 0.037. Next, CCGGTATTGT: 1.03 ± 0.037; GTTAGGGGTT: 0.996 ± 0.024; CCAGTTGGGA: 1 ± 0.032.

For the sequence CGAAATACGG, the switch fluorescence ratio came out at 2.83 ± 0.18. The figure for TACGGCCGAG is 1 ± 0.0029. Next, AATGACAGGG: 0.988 ± 0.02; TTTTTTTTGA: 0.998 ± 0.017; GCGGACTAGT: 0.9883 ± 0.0052. The figure for TGGGGGGGCT is 1.02 ± 0.036; for ATGGGAAGGC it is 0.983 ± 0.026; for GGTAGGGTGG it is 1.02 ± 0.048. As for TACTTGAGTA, the switch fluorescence ratio came to 1.0026 ± 0.00022. As to TGATTCAGGG, the switch fluorescence ratio amounted to 1.028 ± 0.0081. Next, AGGGGGTAGA: 1.05 ± 0.027; TAATATGGGC: 1.02 ± 0.034. The figure for CCCTGTGAAA is 0.975 ± 0.028.

On to TCATTCAAGT, for which the switch fluorescence ratio amounted to 1.04 ± 0.011. In the case of AGATTTTCTG, the switch fluorescence ratio turned out to be 1.01 ± 0.025. The figure for TTGTTTTATC is 1 ± 0.021.

In the case of AGGTTGTAGC, the switch fluorescence ratio amounted to 0.998 ± 0.02. The figure for ACGTTATTTA is 1.1534 ± 0.0011; for ATGGATTCTG it is 1.07 ± 0.091; for TTAGTGGGGC it is 1.03 ± 0.041. The figure for AGTTGGCTTT is 1.018 ± 0.008. Next, TAAGTGACAA: 1.05 ± 0.019.

Regarding TTTTTTTT, the switch fluorescence ratio was 1.04 ± 0.047. For the sequence TGGGGTCATG, the switch fluorescence ratio turned out to be 0.9887 ± 0.0096. The figure for TATAATTGCC is 0.991 ± 0.0076; for TTAGGGTTCC it is 0.992 ± 0.035. For AAGTTCGCCT, the switch fluorescence ratio turned out to be 1.09 ± 0.13. Next, GCAGCGGGGC: 1.28 ± 0.038; TGACGATAGG: 0.995 ± 0.013; GATTGTGCTG: 0.988 ± 0.01. The figure for AGCTTGAGGT is 0.9941 ± 0.0019. The figure for AATTGTAGGC is 0.976 ± 0.036; for TCTACGCACT it is 2.62 ± 0.15. Consider AGCCATATTT, for which the switch fluorescence ratio was determined as 1.04 ± 0.028. Turning to GGTGGGATCA, the switch fluorescence ratio is 1.09 ± 0.18.

The record behind these values is the supplement of paper PMC10126150.
